Where a chain is given by its changes, count along the chain named.
B1: LK-RB2-39 (antibody, human IgG4 S228P, kappa, V domains shown)
VH: DVKLVESGGGSVQPGGSLKLSCAASGFTFSDYYMYWVRQTPEKRLEWVAYISNGGGNTYYPDTVKGRFTISRDNAKNTLYLQMSRLKSEDTAMYYCARSNWAWYFDVWGTGTTVTVSS
VL: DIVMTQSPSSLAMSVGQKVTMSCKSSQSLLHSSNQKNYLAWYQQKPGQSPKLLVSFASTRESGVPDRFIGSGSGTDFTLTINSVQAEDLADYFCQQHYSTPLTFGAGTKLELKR
B2: LK-RB2-46 (antibody, human IgG4 S228P, kappa, V domains shown)
VH: QVQMQQSDAELVKPGASVKISCKVSGYTFTDQIIHWMKQRPEQGLEWIGYIYPRDDSIMYNEKFKGKATLTADKSSSTANMQLNSLTSEDSAVYFCAYDAYWYFDVWGTGTTVIVSS
VL: DIVMTQSHKFMSASVGDRVSITCKASQDVNTAVAWYRQDPGQSPKLLIYWASTRHTGVPDRFTGSGSGTDYTLTINNFQAEDLALYYCQQHYSPPLTFGAGTKLELKR
B3: p1E1 (antibody, human IgG4 S228P, kappa, V domains shown)
VH: EVQLQQWGAGLLKPSETLSLTCAVYGGSFSGYYWSWIRQPPGKGLEWIGEINHSGSTNYNPSLKSRVTISVDTSKNQFSLKLSSVTAADTAVYYCARLPTRWVTTRYFDLWGRGTLVTVSS
VL: ESVLTQPPSVSGAPGQRVTISCTGSSSNIGAGYDVHWYQQLPGTAPKLLIYGNSNRPSGVPDRFSVSKSGASASLAITGLQAEDEADYYCQSFDNSLSAYVFGGGTQLTVLG
B4: LK-RB2-31 (antibody, human IgG4 S228P, kappa, V domains shown)
VH: QVQLQQPGAELVKPGASMKLSCKASGYTFTTYYMYWVKQRPGLGLEWIGGINPSNGGTTFNEKFKNKATLTVDKSSSTAYMQLRSLTSEDSAVYYCTRWRFFDVWGAGTTVTVSS
VL: SIVMTQTPEFLLVSAGDRVTITCKASQSVNNDVAWFQQKPGQSPKLLIYYASNRYTGVPDRFTGSGYGTDFTFTISTVQAEDLAIYFCQQDYSSPPTFGGATKLEIKR
B5: LK-RB2-47 (antibody, human IgG4 S228P, kappa, V domains shown)
VH: QVQLKQSGPGLVQPSQSLSITCTVSGFSLISYGVHWVRQSPGKGLEWLGVIWSGGSTDYNAAFISRLSISKDNSKSQVFFKMNSLQADDTAIYYCARSFHYHGSTFDYWGQGTTLTVSS
VL: DIQMTQTTSSLSASLGDRVIISCRASQDINNYLNWYQQKPDGTVKLLIYFTSRLHSGVPSSFSGSGSGTDYSLTINNLEQEDIATYFCQQVNTLPYTFGGGTKLEIKR
B6: LK-RB2-27 (antibody, human IgG4 S228P, kappa, V domains shown)
VH: DVKLVESGGGLVKPGGSLKLSCAASGFTFSSYSMSWVRQTPEKRLEWVATISTGGSYTYYPDSVKGRFTISRDNAKNTLYLQMSSLKSEDTAMFYCTRGSMDYWGQGTSVTVSS
VL: DILMTQSPSSMSVSLGDTVSITCHASQDISSNIGWLQQKPGNSFKGLIYHGTNLEDGVPSRFSGSGSGADYSLTISSLESEDFADYYCVQYAQFPYTFGGGTKLEIKR
B7: LK-RB2-28 (antibody, human IgG4 S228P, kappa, V domains shown)
VH: B6 VH with V64M
VL: B6 VL with T22A
B8: LK-RB2-34 (antibody, human IgG4 S228P, kappa, V domains shown)
VH: B6 VH with L4V, G55S, P61S
VL: B6 VL with T52I
B9: LK-RB2-43 (antibody, human IgG4 S228P, kappa, V domains shown)
VH: EVQLVESGGDLVKPGGSLKLSCAASGFTFSSYGMSWVRQTPDKRLEWVATISGGGTYTYYPDSVKGRFTISRDNAKNTLYLQMSSLKSEDTAMYYCASGAMDYWGQGTSVTVSS
VL: QIVLTQSPAILSASPGEKVTMTCSANSSVSSMYKYQQKPGSSPKPWIYGTSNLASGVPARFSGSGSGTSYSLTISSMEAADAATYYCQQYHSHPLTFGAGTKLELKR
B10: LK-RB2-44 (antibody, human IgG4 S228P, kappa, V domains shown)
VH: B9 VH
VL: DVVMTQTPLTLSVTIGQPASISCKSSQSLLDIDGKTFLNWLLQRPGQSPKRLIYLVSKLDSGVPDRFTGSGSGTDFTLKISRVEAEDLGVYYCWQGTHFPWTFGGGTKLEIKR

The binders below were run against T1, human LILRB1 expressed on CHOK1 cells (CHOK1-hLILRB1) (human, UniProt Q8NHL6 24-650) (assay: FACS binding to CHOK1-hLILRB1 cells).
T1 construct: whole, on cells; also called CHOK1-LILRB1
T1 sequence (Q8NHL6 24-650): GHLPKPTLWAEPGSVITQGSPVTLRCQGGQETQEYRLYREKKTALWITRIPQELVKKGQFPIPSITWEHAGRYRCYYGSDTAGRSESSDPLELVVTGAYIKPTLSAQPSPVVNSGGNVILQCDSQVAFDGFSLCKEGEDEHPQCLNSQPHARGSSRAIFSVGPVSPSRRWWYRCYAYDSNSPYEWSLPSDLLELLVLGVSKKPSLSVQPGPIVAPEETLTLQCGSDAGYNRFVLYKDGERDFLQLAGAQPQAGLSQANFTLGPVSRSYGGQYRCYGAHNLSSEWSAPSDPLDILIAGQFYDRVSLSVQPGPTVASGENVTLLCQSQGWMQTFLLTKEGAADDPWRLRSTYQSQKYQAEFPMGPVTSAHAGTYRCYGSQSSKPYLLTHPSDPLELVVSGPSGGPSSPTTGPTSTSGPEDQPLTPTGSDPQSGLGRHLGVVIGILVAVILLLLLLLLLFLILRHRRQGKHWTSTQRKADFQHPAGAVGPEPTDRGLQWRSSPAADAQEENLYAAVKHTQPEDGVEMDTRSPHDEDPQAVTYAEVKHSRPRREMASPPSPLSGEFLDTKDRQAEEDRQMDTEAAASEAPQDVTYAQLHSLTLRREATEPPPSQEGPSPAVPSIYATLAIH

Binder	binding result	EC50 [nM]
B1	no binding	–
B2	no binding	–
B3	no binding	–
B4	–	1.99
B5	no binding	–
B6	no binding	–
B7	no binding	–
B8	no binding	–
B9	no binding	–
B10	no binding	–

The binders below were run against T2, human LILRB2 expressed on CHOK1 cells (CHOK1-hLILRB2) (human, UniProt Q8N423 22-597) (assay: FACS binding to CHOK1-hLILRB2 cells).
T2 construct: whole, on cells; also called CHOK1-LILRB2
T2 sequence (Q8N423 22-597): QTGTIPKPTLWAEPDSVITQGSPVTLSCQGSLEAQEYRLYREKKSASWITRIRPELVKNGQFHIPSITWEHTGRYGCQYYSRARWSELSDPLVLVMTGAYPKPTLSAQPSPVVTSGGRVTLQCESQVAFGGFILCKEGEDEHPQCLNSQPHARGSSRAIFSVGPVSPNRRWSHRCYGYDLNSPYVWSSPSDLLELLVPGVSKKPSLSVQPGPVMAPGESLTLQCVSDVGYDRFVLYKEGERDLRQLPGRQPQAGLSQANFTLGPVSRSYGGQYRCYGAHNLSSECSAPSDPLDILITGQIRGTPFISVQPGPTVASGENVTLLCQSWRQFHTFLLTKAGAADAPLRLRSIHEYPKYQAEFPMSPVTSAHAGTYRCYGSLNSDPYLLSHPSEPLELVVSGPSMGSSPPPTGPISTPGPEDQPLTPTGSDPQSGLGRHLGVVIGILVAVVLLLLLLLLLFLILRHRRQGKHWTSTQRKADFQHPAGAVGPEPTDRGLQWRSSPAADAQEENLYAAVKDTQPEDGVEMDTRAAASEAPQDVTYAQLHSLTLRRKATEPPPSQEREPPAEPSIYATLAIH

Binder	EC50 [nM]	binding result
B1	36.6	–
B2	0.35	–
B3	0.64	–
B4	–	no binding
B5	–	no binding
B6	–	no binding
B7	–	no binding
B8	–	no binding
B9	–	no binding
B10	–	no binding

From US20260234247A1 (published 2026)
